Assay results taken from PMC3950950, “Fluorescent sensors for activity and regulation of the nitrate transceptor CHL1/NRT1.1 and oligopeptide transporters” (eLife, 2014).

Substrate: O=[N+]([O-])O
Experiment: fluorescence response (donor quenching) of sensor in yeast, plate reader
Format: cell-based, Arabidopsis thaliana
Conditions: 50 mM MES pH 5.5, monophasic low-affinity response, excitation 428 nm

B1: NiTrac1 (CHL1/NRT1.1/NPF6.3 fusion) (Arabidopsis thaliana; T101A) (protein)
chain: MSLPETKSDDILLDAWDFQGRPADRSKTGGWASAAMILCIEAVERLTTLGIGVNLVTYLTGTMHLGNATAANTVTNFLGTSFMLCLLGGFIADTFLGRYLAIAIFAAIQATGVSILTLSTIIPGLRPPRCNPTTSSHCEQASGIQLTVLYLALYLTALGTGGVKASVSGFGSDQFDETEPKERSKMTYFFNRFFFCINVGSLLAVTVLVYVQDDVGRKWGYGICAFAIVLALSVFLAGTNRYRFKKLIGSPMTQVAAVIVAAWRNRKLELPADPSYLYDVDDIIAAEGSMKGKQKLPHTEQFRSLDKAAIRDQEAGVTSNVFNKWTLSTLTDVEEVKQIVRMLPIWATCILFWTVHAQLTTLSVAQSETLDRSIGSFEIPPASMAVFYVGGLLLTTAVYDRVAIRLCKKLFNYPHGLRPLQRIGLGLFFGSMAMAVAALVELKRLRTAHAHGPTVKTLPLGFYLLIPQYLIVGIGEALIYTGQLDFFLRECPKGMKGMSTGLLLSTLALGFFFSSVLVTIVEKFTGKAHPWIADDLNKGRLYNFYWLVAVLVALNFLIFLVFSKWYVYKEKRLAEVGIELDDEPSIPMGH
notes: full-length ORF between N-terminal Aphrodite t9 (yellow FP) and C-terminal mCerulean (pDRFlip30); expressed in yeast BJ5465; intact cells
- Km: 3.5 ± 3.7 mM
